From patent publication US7067619 (LA JOLLA CANCER RESEARCH FOUNDATION, dated 2006)
Ends that are not written are not given here.

B1: CDCRGDCLC phage (peptide)
peptide: CDCRGDCLC
modifications: not fully specified (bridges); also: two disulfide bonds, pairing not given here
notes: on fuse 5 phage, fused to pIII
B2: CLCRGDCIC phage (peptide)
peptide: CLCRGDCIC
modifications: not fully specified (bridges); also: two disulfide bonds, pairing not given here
notes: as for B1

Key:
[1] = biological target: T1, αvβ3 integrin isolated from human placental extract (human, UniProt P06756 31-1048; P05106 27-788); assay: phage panning on coated integrin
T1 construct: isolated on GRGDSPK-Sepharose; said to be primarily αvβ3
Experimental: (§1) In the first panning, the integrins were coated at 5 µg per well, and the library pool was incubated for 4 hours at 25° C. in TBS buffer containing 1% bovine serum albumin and 1 mM MnCl_2 (α_5β_1, α_vβ_3) 1 mM MgCl_2 ($\alphaIIb\beta_3$) or 1 mM CaCl_2 (α_vβ_5).

[2] = biological target: αvβ5 integrin isolated from human placental extract (human, UniProt P06756 31-1048; P18084 24-799); assay: phage panning on coated integrin
Experimental: as §1

Chain of αvβ5 integrin isolated from human placental extract (P06756 31-1048, chain 1 of 2): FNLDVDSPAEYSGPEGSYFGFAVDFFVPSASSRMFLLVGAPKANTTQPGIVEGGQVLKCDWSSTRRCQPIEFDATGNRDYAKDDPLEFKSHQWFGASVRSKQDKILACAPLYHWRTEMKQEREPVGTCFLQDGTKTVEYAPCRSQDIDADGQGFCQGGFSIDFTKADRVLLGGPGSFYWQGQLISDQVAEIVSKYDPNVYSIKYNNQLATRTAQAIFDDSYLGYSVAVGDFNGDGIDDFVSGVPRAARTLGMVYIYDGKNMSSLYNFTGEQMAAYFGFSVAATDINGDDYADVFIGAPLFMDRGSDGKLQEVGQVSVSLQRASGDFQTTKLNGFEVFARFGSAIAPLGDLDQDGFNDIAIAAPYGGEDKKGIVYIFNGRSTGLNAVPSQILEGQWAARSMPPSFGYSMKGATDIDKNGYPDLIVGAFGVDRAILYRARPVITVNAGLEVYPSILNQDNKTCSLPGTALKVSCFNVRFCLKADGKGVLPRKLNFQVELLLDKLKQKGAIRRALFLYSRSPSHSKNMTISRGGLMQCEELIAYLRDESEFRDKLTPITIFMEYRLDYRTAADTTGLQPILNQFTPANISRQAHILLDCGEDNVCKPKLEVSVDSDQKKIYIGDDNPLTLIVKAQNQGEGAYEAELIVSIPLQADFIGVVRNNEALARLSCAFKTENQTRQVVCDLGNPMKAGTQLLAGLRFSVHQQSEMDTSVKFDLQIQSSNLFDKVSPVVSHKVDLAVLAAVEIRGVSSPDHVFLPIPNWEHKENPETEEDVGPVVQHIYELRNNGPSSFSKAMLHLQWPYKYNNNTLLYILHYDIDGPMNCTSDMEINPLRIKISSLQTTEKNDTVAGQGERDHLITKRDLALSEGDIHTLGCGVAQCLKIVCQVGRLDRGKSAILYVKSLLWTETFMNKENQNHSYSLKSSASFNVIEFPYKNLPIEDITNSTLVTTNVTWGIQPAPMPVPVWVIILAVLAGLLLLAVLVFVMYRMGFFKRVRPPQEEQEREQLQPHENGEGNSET
Chain of αvβ5 integrin isolated from human placental extract (P18084 24-799, chain 2 of 2): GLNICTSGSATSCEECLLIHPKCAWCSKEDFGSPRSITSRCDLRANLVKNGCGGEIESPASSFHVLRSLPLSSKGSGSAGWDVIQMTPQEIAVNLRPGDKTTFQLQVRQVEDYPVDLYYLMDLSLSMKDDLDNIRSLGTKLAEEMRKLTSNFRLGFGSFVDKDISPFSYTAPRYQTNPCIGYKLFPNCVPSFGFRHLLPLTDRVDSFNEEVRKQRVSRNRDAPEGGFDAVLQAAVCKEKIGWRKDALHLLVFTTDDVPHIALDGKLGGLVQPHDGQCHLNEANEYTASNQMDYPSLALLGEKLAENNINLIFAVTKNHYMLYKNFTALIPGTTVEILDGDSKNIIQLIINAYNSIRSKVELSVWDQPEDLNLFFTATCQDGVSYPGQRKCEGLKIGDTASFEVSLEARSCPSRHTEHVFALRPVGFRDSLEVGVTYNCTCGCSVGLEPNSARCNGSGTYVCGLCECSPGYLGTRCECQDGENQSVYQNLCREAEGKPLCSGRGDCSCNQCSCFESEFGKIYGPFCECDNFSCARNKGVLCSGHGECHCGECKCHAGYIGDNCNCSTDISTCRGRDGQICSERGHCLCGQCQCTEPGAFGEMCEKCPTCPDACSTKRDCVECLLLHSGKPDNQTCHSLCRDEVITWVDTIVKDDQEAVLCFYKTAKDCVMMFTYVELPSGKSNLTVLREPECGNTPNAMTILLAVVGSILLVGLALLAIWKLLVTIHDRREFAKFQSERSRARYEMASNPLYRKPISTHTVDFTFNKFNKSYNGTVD
T1 sequence (P06756 31-1048, chain 1 of 2): as the sequence (P06756 31-1048, chain 1 of 2) above
T1 sequence (P05106 27-788, chain 2 of 2): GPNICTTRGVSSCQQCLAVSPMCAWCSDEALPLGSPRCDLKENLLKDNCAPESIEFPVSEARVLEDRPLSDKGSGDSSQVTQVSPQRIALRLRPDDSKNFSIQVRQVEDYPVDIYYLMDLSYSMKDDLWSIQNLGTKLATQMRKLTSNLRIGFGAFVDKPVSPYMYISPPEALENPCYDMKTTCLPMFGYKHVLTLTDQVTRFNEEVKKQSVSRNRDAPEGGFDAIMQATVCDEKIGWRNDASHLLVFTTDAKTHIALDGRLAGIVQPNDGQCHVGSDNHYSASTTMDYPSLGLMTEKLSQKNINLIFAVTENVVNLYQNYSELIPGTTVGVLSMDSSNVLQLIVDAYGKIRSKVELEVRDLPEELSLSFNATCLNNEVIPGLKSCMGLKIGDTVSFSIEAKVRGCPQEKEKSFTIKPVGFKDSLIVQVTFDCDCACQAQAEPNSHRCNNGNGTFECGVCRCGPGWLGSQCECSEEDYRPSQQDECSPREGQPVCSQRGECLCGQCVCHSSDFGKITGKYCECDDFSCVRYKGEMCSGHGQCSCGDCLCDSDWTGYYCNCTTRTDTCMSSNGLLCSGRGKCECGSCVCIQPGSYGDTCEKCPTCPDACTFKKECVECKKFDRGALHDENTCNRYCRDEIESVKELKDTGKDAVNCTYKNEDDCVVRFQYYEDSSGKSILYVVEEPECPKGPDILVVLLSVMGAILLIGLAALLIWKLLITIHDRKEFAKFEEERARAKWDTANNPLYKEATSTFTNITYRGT

| Binder | binding result [1] | binding result [2] |
| --- | --- | --- |
| CRGDSHLQC (on fuse 5 phage, fused to pIII) [CRGDSHLQC phage] | binds | – |
| CSRGDGRC (on fuse 5 phage, fused to pIII) [CSRGDGRC phage] | binds | – |
| CLVLPSTGC (on fuse 5 phage, fused to pIII) [CLVLPSTGC phage] | binds | – |
| CRGDSFVGC (on fuse 5 phage, fused to pIII) [CRGDSFVGC phage] | binds | – |
| CRGDAWPGC (on fuse 5 phage, fused to pIII) [CRGDAWPGC phage] | binds | – |
| CQARGDRPRC (on fuse 5 phage, fused to pIII) [CQARGDRPRC phage] | binds | – |
| CNRRGDNWGC (on fuse 5 phage, fused to pIII) [CNRRGDNWGC phage] | binds | – |
| CSRGDTYLC (on fuse 5 phage, fused to pIII) [CSRGDTYLC phage] | binds | – |
| CAGRGDALC (on fuse 5 phage, fused to pIII) [CAGRGDALC phage] | binds | – |
| CLRGDRVC (on fuse 5 phage, fused to pIII) [CLRGDRVC phage] | binds | – |
| CTTRGDSFC (on fuse 5 phage, fused to pIII) [CTTRGDSFC phage] | binds | – |
| CTTRSDSFC (on fuse 5 phage, fused to pIII) [CTTRSDSFC phage] | binds | – |
| CVTRGDHFC (on fuse 5 phage, fused to pIII) [CVTRGDHFC phage] | binds | – |
| CRGDGIRFC (on fuse 5 phage, fused to pIII) [CRGDGIRFC phage] | binds | – |
| CWSISPYFC (on fuse 5 phage, fused to pIII) [CWSISPYFC phage] | binds | – |
| CPDLLAQSC (on fuse 5 phage, fused to pIII) [CPDLLAQSC phage] | binds | – |
| CWRGDTPC (on fuse 5 phage, fused to pIII) [CWRGDTPC phage] | binds | – |
| CARRLDAPC (on fuse 5 phage, fused to pIII) [CARRLDAPC phage] | binds | – |
| CELRGDSAC (on fuse 5 phage, fused to pIII) [CELRGDSAC phage] | – | binds |
| CRGDHGTLC (on fuse 5 phage, fused to pIII) [CRGDHGTLC phage] | binds | – |
| CRGDKGWNC (on fuse 5 phage, fused to pIII) [CRGDKGWNC phage] | binds | – |
| CYSLGFLVC (on fuse 5 phage, fused to pIII) [CYSLGFLVC phage] | binds | – |
| CVRRGDVFC (on fuse 5 phage, fused to pIII) [CVRRGDVFC phage] | – | binds |
| B1 | – | binds |

| Binder | binding result [1] | binding result [2] |
| --- | --- | --- |
| CGRGDTPTC (on fuse 5 phage, fused to pIII) [CGRGDTPTC phage] | – | binds |
| CKTPGRLDC (on fuse 5 phage, fused to pIII) [CKTPGRLDC phage] | binds | – |
| CSRGDGAIC (on fuse 5 phage, fused to pIII) [CSRGDGAIC phage] | binds | – |
| CRGDTVYAC (on fuse 5 phage, fused to pIII) [CRGDTVYAC phage] | binds | – |
| CNARGDKLC (on fuse 5 phage, fused to pIII) [CNARGDKLC phage] | binds | – |
| CNARGDGFC (on fuse 5 phage, fused to pIII) [CNARGDGFC phage] | binds | – |
| CVVRGDTFC (on fuse 5 phage, fused to pIII) [CVVRGDTFC phage] | – | binds |
| CISRGDTFC (on fuse 5 phage, fused to pIII) [CISRGDTFC phage (αvβ3 selection)] | binds | – |
| CISRGDTFC (on fuse 5 phage, fused to pIII) [CISRGDTFC phage (αvβ5 selection)] | – | binds |
| CGRGDLIHC (on fuse 5 phage, fused to pIII) [CGRGDLIHC phage] | binds | – |
| CRGDGRNC (on fuse 5 phage, fused to pIII) [CRGDGRNC phage] | binds | – |
| CTRGDSIFC (on fuse 5 phage, fused to pIII) [CTRGDSIFC phage] | binds | – |
| B2 | – | binds |
| CDLRGDTYC (on fuse 5 phage, fused to pIII) [CDLRGDTYC phage] | – | binds |
| CRGDVFLC (on fuse 5 phage, fused to pIII) [CRGDVFLC phage] | – | binds |
| CPRGDSTLC (on fuse 5 phage, fused to pIII) [CPRGDSTLC phage] | binds | – |
| CWRGDRAC (on fuse 5 phage, fused to pIII) [CWRGDRAC phage] | binds | – |
| CEGRGDSFC (on fuse 5 phage, fused to pIII) [CEGRGDSFC phage] | – | binds |
| CEPRGDSFC (on fuse 5 phage, fused to pIII) [CEPRGDSFC phage] | – | binds |
| CYARGDSFC (on fuse 5 phage, fused to pIII) [CYARGDSFC phage] | – | binds |
| CLHPNVRSC (on fuse 5 phage, fused to pIII) [CLHPNVRSC phage] | – | binds |
| CSPRGDAGC (on fuse 5 phage, fused to pIII) [CSPRGDAGC phage] | binds | – |
| CGRGDSHHC (on fuse 5 phage, fused to pIII) [CGRGDSHHC phage] | binds | – |
| CRGDNTFGC (on fuse 5 phage, fused to pIII) [CRGDNTFGC phage] | binds | – |

| Binder | binding result [1] | binding result [2] |
| --- | --- | --- |
| CLVRGDSLC (on fuse 5 phage, fused to pIII) [CLVRGDSLC phage] | – | binds |
| CRGDSLRC (on fuse 5 phage, fused to pIII) [CRGDSLRC phage] | binds | – |
| CPSRGDALC (on fuse 5 phage, fused to pIII) [CPSRGDALC phage] | binds | – |
| CFRGDDRKC (on fuse 5 phage, fused to pIII) [CFRGDDRKC phage] | binds | – |
| CRGDCCQSC (on fuse 5 phage, fused to pIII) [CRGDCCQSC phage] | – | binds |
| CRGDLAWVC (on fuse 5 phage, fused to pIII) [CRGDLAWVC phage] | binds | – |
| CRGDTYLIC (on fuse 5 phage, fused to pIII) [CRGDTYLIC phage] | – | binds |
| CLSRGDVVC (on fuse 5 phage, fused to pIII) [CLSRGDVVC phage] | binds | – |
| CVRRGDAFC (on fuse 5 phage, fused to pIII) [CVRRGDAFC phage] | binds | – |
| CRVRGDSWC (on fuse 5 phage, fused to pIII) [CRVRGDSWC phage] | binds | – |
| CTRRGDATC (on fuse 5 phage, fused to pIII) [CTRRGDATC phage] | binds | – |
| CDRGDSQSC (on fuse 5 phage, fused to pIII) [CDRGDSQSC phage] | binds | – |
| CNIRGDKIC (on fuse 5 phage, fused to pIII) [CNIRGDKIC phage] | binds | – |
| CLRGDIANC (on fuse 5 phage, fused to pIII) [CLRGDIANC phage] | binds | – |
| CVTRGDNFC (on fuse 5 phage, fused to pIII) [CVTRGDNFC phage] | – | binds |
| CVLRGDNFC (on fuse 5 phage, fused to pIII) [CVLRGDNFC phage] | – | binds |
| CLRRGDSGC (on fuse 5 phage, fused to pIII) [CLRRGDSGC phage] | binds | – |
| CWTRGDSFC (on fuse 5 phage, fused to pIII) [CWTRGDSFC phage] | – | binds |
| CEVRGDRIC (on fuse 5 phage, fused to pIII) [CEVRGDRIC phage] | binds | – |
| CTRGDSLDC (on fuse 5 phage, fused to pIII) [CTRGDSLDC phage] | binds | – |
| CHTRGDTFC (on fuse 5 phage, fused to pIII) [CHTRGDTFC phage] | – | binds |
| CEMRGDTFC (on fuse 5 phage, fused to pIII) [CEMRGDTFC phage] | – | binds |
